Assay [1] addresses T1, VWF-FP R768C mutant (albumin-fused von Willebrand Factor) (human).
T1 construct: Stably expressed in CHO cells with furin co-transfected; also called VWF-FP mutant R768C; Cys residue at VWF aa position 768; not shown: linker between VWF and albumin, made in analogy to WO 2009/156137
The assay can be described thus: ELISA of co-expression supernatant: anti-VWF capture, 350 mM CaCl2 wash, anti-FVIII detection. On the procedure:
(§1) Cell culture supernatant samples (10 ml) from transient transfections were concentrated with Amicon Ultracell-30K (Millipore UFC903024; 3000 g centrifugation). FVIII covalently attached to VWF-FP in culture supernatant (concentrates) was determined by a standard ELISA. Briefly, microplates were incubated with 100 μL per well of the capture antibody (rabbit anti human VWF-IgG, Dako A0082 [Dako, Hamburg, Germany], diluted 1:2000 in buffer A [Sigma C3041, Sigma-Aldrich, Munich, Germany]) overnight at ambient temperature. After washing plates three times with buffer B (Sigma T9039), each well was incubated with 200 μL buffer C (Sigma T6789) for 1.5 hours at ambient temperature (blocking). After another three wash steps with buffer B, serial dilutions of the test sample in buffer B as well as serial dilutions of a control preparation of covalently linked FVIII-VWF-FP, (2.0-0.03 arbitrary U/ml in buffer B (we call these “arbitrary units” as they may not correspond to the standard FVIII units as determined using Standard Human Plasma); volumes per well: 100 μL) were incubated for 1.5 hours at ambient temperature. After three wash steps with buffer B, 200 μL of 350 mM CaCl₂ were added to each well and incubated for 1 hour at ambient temperature. CaCl₂ was removed (without washing) and additional 200 μl were added to each well and incubated further for 1 hour. After three wash steps with buffer B 100 μL of a 1:2 dilution in buffer B of the detection antibody (Detecting Antibody for FVIII:C, peroxidase labelled, Cedarlane CL20035K-D) were added to each well and incubated for 1 hour at ambient temperature. After three wash steps with buffer B, 100 μL of substrate solution (OUVF, Siemens Healthcare Diagnostics) were added per well and incubated for 15 minutes at ambient temperature in the dark. Addition of 100 μL undiluted stop dilution (OSFA, Siemens Healthcare Diagnostics) prepared the samples for reading in a suitable microplate reader at 450 nm wavelength. Concentrations of the test samples were then calculated using the standard curve with the control preparation.
(In general: In an ELISA, binding on a coated surface is turned into a signal by an enzyme label.)

Assay [2] deals with T2, VWF-FP N1134C mutant (albumin-fused von Willebrand Factor) (human).
T2 construct: Stably expressed in CHO cells with furin co-transfected; also called VWF-FP mutant N1134C; Cys residue at VWF aa position 1134; not shown: linker between VWF and albumin, made in analogy to WO 2009/156137
Described as above. On the procedure:
as §1

Assay [3] deals with T1, VWF-FP R768C mutant (albumin-fused von …). In words: covalent-FVIII ELISA over FVIII activity assay.
In assay [4] the target is T2, VWF-FP N1134C mutant (albumin-fused von …). The assay can be described thus: covalent-FVIII ELISA over FVIII activity assay.
Assay [5] concerns the target T1, VWF-FP R768C mutant (albumin-fused von …). In words: covalent-FVIII ELISA over FVIII antigen ELISA.
Assay [6] concerns the target T2, VWF-FP N1134C mutant (albumin-fused von …). The assay can be described thus: covalent-FVIII ELISA over FVIII antigen ELISA.

This note sets out measurements from patent US20180092966A1 (CSL, published 2018).

T1 sequence (chain, as listed by the source R768C R768C): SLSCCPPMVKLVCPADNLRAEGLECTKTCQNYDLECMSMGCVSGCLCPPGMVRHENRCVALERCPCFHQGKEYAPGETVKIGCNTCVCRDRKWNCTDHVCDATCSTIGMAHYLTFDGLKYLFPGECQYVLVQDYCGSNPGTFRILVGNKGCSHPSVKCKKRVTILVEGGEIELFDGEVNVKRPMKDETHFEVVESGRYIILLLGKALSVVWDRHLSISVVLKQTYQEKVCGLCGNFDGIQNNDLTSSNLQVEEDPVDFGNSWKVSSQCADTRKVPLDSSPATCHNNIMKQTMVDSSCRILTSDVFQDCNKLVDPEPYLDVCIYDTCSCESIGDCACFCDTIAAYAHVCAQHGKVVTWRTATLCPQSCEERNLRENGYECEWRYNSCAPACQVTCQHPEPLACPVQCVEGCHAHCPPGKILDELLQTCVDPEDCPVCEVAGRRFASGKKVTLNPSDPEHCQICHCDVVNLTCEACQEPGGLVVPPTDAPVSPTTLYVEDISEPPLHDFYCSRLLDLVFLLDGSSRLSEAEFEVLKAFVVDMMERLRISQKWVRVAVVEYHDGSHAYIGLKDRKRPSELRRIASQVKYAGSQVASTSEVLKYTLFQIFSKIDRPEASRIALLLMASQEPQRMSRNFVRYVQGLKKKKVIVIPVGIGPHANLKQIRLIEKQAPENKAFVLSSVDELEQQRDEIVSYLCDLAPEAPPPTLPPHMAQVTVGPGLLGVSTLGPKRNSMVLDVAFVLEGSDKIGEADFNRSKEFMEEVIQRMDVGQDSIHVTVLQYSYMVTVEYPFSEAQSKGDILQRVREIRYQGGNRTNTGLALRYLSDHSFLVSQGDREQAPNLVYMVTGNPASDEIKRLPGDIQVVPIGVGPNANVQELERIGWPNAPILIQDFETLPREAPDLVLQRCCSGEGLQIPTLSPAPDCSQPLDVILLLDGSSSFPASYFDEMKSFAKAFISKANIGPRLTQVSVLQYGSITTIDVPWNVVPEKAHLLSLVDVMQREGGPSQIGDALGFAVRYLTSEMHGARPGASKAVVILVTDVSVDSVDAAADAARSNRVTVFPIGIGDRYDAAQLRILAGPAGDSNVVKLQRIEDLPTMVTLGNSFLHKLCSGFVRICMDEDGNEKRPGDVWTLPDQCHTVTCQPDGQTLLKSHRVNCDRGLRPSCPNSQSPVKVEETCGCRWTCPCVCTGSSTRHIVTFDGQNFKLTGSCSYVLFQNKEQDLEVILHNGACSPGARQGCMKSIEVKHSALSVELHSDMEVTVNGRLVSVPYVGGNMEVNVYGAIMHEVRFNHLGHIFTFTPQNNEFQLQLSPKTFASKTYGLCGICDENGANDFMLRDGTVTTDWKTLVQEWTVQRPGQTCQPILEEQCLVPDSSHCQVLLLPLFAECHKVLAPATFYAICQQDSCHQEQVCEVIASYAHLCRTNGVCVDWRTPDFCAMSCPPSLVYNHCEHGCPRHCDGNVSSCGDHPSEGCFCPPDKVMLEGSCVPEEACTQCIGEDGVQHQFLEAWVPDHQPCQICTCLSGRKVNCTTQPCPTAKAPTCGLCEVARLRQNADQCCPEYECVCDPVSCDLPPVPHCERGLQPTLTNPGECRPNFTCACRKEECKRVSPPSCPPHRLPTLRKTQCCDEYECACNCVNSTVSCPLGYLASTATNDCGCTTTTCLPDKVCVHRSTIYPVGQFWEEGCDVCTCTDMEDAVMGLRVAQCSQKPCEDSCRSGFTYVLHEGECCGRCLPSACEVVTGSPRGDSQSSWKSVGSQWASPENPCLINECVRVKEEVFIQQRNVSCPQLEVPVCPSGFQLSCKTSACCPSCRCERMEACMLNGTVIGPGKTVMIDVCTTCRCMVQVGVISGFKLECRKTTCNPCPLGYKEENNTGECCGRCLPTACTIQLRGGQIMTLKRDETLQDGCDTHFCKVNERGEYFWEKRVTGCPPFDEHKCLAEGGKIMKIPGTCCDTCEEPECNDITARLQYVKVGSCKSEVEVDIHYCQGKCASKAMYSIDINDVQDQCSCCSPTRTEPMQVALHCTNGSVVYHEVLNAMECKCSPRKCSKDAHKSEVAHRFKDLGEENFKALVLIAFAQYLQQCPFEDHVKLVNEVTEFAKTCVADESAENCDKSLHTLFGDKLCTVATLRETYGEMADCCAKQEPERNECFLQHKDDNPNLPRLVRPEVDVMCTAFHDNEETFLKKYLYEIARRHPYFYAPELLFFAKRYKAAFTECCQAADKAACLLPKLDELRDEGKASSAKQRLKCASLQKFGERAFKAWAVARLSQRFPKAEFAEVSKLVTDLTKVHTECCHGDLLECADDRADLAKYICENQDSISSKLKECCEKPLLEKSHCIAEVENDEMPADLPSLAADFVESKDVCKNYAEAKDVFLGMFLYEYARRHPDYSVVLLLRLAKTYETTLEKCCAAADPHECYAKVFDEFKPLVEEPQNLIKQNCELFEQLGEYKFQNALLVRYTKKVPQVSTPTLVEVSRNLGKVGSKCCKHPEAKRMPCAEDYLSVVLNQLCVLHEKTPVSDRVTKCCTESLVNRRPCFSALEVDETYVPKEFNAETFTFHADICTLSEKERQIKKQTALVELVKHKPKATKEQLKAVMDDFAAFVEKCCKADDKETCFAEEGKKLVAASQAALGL
T2 sequence (chain, as listed by the source N1134C N1134C): as the sequence (chain, as listed by the source R768C R768C) above, with C5R, N371C counted along it

B1: Factor VIII SingleChain S1687C mutant (other)
chain: ATRRYYLGAVELSWDYMQSDLGELPVDARFPPRVPKSFPFNTSVVYKKTLFVEFTDHLFNIAKPRPPWMGLLGPTIQAEVYDTVVITLKNMASHPVSLHAVGVSYWKASEGAEYDDQTSQREKEDDKVFPGGSHTYVWQVLKENGPMASDPLCLTYSYLSHVDLVKDLNSGLIGALLVCREGSLAKEKTQTLHKFILLFAVFDEGKSWHSETKNSLMQDRDAASARAWPKMHTVNGYVNRSLPGLIGCHRKSVYWHVIGMGTTPEVHSIFLEGHTFLVRNHRQASLEISPITFLTAQTLLMDLGQFLLFCHISSHQHDGMEAYVKVDSCPEEPQLRMKNNEEAEDYDDDLTDSEMDVVRFDDDNSPSFIQIRSVAKKHPKTWVHYIAAEEEDWDYAPLVLAPDDRSYKSQYLNNGPQRIGRKYKKVRFMAYTDETFKTREAIQHESGILGPLLYGEVGDTLLIIFKNQASRPYNIYPHGITDVRPLYSRRLPKGVKHLKDFPILPGEIFKYKWTVTVEDGPTKSDPRCLTRYYSSFVNMERDLASGLIGPLLICYKESVDQRGNQIMSDKRNVILFSVFDENRSWYLTENIQRFLPNPAGVQLEDPEFQASNIMHSINGYVFDSLQLSVCLHEVAYWYILSIGAQTDFLSVFFSGYTFKHKMVYEDTLTLFPFSGETVFMSMENPGLWILGCHNSDFRNRGMTALLKVSSCDKNTGDYYEDSYEDISAYLLSKNNAIEPRSFSQNSRHRSTRQKQFNATTIPENTTLQSDQEEIDYDDTISVEMKKEDFDIYDEDENQCPRSFQKKTRHYFIAAVERLWDYGMSSSPHVLRNRAQSGSVPQFKKVVFQEFTDGSFTQPLYRGELNEHLGLLGPYIRAEVEDNIMVTFRNQASRPYSFYSSLISYEEDQRQGAEPRKNFVKPNETKTYFWKVQHHMAPTKDEFDCKAWAYFSDVDLEKDVHSGLIGPLLVCHTNTLNPAHGRQVTVQEFALFFTIFDETKSWYFTENMERNCRAPCNIQMEDPTFKENYRFHAINGYIMDTLPGLVMAQDQRIRWYLLSMGSNENIHSIHFSGHVFTVRKKEEYKMALYNLYPGVFETVEMLPSKAGIWRVECLIGEHLHAGMSTLFLVYSNKCQTPLGMASGHIRDFQITASGQYGQWAPKLARLHYSGSINAWSTKEPFSWIKVDLLAPMIIHGIKTQGARQKFSSLYISQFIIMYSLDGKKWQTYRGNSTGTLMVFFGNVDSSGIKHNIFNPPIIARYIRLHPTHYSIRSTLRMELMGCDLNSCSMPLGMESKAISDAQITASSYFTNMFATWSPSKARLHLQGRSNAWRPQVNNPKEWLQVDFQKTMKVTGVTTQGVKSLLTSMYVKEFLISSSQDGHQWTLFFQNGKVKVFQGNQDSFTPVVNSLDPPLLTRYLRIHPQSWVHQIALRMEVLGCEAQDLY
notes: Single-chain FVIII with partial B-domain deletion; also called FVIII-SC S1687C; Cys residue at FVIII aa position 1687
On to B1, for which the figures for the “covalent FVIII” value in assay [1] and in assay [2] were 390 amU/ml and 843 amU/ml, respectively. Further, the “ratio covalent FVIII/Total FVIII activity” value was 1.44 in assay [3] and 1.05 in assay [4]. The entries for the “ratio covalent FVIII/Total FVIII antigen” value in assay [5] and in assay [6] were 0.49 and 2.05, respectively.
